Tests used:
Test in all cases: cell-based or functional assay
[1] = biological target: MuLV envelope (negative control pseudovirus) (MuLV)
[2] = biological target: HIV-1 Env of pseudovirus ZM109F.PB4 (clade C) (HIV-1)
[3] = biological target: HIV-1 Env of pseudovirus HIV-001428-2.42 (clade C) (HIV-1)
[4] = biological target: HIV-1 Env of pseudovirus PVO.4 (clade B) (HIV-1)
[5] = biological target: HIV-1 Env of pseudovirus ZM214M.PL15 (clade C) (HIV-1)
[6] = biological target: HIV-1 Env of pseudovirus CNE53 (clade BC) (HIV-1)
[7] = biological target: HIV-1 Env of pseudovirus CNE30 (clade BC) (HIV-1)
[8] = biological target: HIV-1 Env of pseudovirus Q842.d12 (clade A) (HIV-1)
[9] = biological target: HIV-1 Env of pseudovirus 6240_08_TA5_4622 (clade B (T/F)) (HIV-1)
[10] = biological target: HIV-1 Env of pseudovirus TRJO4551.58 (clade B) (HIV-1)
[11] = biological target: HIV-1 Env of pseudovirus ZM135M.PL10a (clade C) (HIV-1)
[12] = biological target: HIV-1 Env of pseudovirus 62357_14_D3_4589 (clade B (T/F)) (HIV-1)
[13] = biological target: HIV-1 Env of pseudovirus Ce704809221_1B3 (clade C (T/F)) (HIV-1)
[14] = biological target: HIV-1 Env of pseudovirus Ce2010_F5 (clade C (T/F)) (HIV-1)
[15] = biological target: HIV-1 Env pseudovirus 235-47 (HIV-1)
[16] = biological target: HIV-1 Env pseudovirus T255-34 (HIV-1)
[17] = biological target: HIV-1 Env pseudovirus 6952.v1.c20 (HIV-1)
[18] = biological target: HIV-1 Env pseudovirus BJOX025000.01.1 (HIV-1)
[19] = biological target: HIV-1 Env pseudovirus BJOX015000.11.5 (HIV-1)
[20] = biological target: HIV-1 Env pseudovirus A07412M1.vrc12 (HIV-1)
[21] = biological target: HIV-1 Env pseudovirus 3016.v5.c45 (HIV-1)
[22] = biological target: HIV-1 Env pseudovirus 3103.v3.c10 (HIV-1)
[23] = biological target: HIV-1 Env pseudovirus BJOX009000.02.4 (HIV-1)
[24] = biological target: HIV-1 Env pseudovirus C3347.c11 (HIV-1)
[25] = biological target: HIV-1 Env pseudovirus P1981_C5_3 (HIV-1)
[26] = biological target: HIV-1 Env pseudovirus 928-28 (HIV-1)
[27] = biological target: HIV-1 Env pseudovirus 89-F1_2_25 (HIV-1)

N49P6 (antibody)
IC50 [1]: > 50 µg/mL
IC80 [1]: > 50 µg/mL
MPI [1]: 0

N49P7 (antibody)
IC50, neutralization titer in TZM.bl cells [1]: > 50 µg/mL
IC80, neutralization titer in TZM.bl cells [1]: > 50 µg/mL
MPI, neutralization in TZM.bl cells [1]: 9

N49P7.1 (antibody)
IC50, neutralization titer in TZM.bl cells [1]: > 50 µg/mL
IC80, neutralization titer in TZM.bl cells [1]: > 50 µg/mL
MPI, neutralization in TZM.bl cells [1]: 4

N49P7.2 (antibody)
IC50 [2]: 0.065 µg/mL
IC80 [2]: 0.321 µg/mL
MPI [2]: 99
IC50 [3]: 0.01 µg/mL
IC80 [3]: 0.036 µg/mL
MPI [3]: 100
IC50 [4]: 0.237 µg/mL
IC80 [4]: 0.831 µg/mL
MPI [4]: 100
IC50 [5]: 0.559 µg/mL
IC80 [5]: 4.53 µg/mL
MPI [5]: 100
IC50 [6]: 0.1 µg/mL
IC80 [6]: 0.277 µg/mL
MPI [6]: 100
IC50 [7]: 0.362 µg/mL
IC80 [7]: 1.2 µg/mL
MPI [7]: 100
IC50 [8]: 0.045 µg/mL
IC80 [8]: 0.2 µg/mL
MPI [8]: 100
IC50 [9]: 0.812 µg/mL
IC80 [9]: 2.87 µg/mL
MPI [9]: 100
IC50 [10]: 0.21 µg/mL
IC80 [10]: 0.673 µg/mL
MPI [10]: 100
IC50 [1]: > 50 µg/mL
IC80 [1]: > 50 µg/mL
MPI [1]: 4
IC50 [11]: 0.596 µg/mL
IC80 [11]: 2.8 µg/mL
MPI [11]: 99
IC50 [12]: 0.03 µg/mL
IC80 [12]: 0.121 µg/mL
MPI [12]: 100
IC50 [13]: 0.874 µg/mL
IC80 [13]: 3.88 µg/mL
MPI [13]: 100
IC50 [14]: 0.398 µg/mL
IC80 [14]: 1.29 µg/mL
MPI [14]: 100

N49P9 (antibody)
IC50 [15]: 0.072 µg/mL
IC80 [15]: 0.271 µg/mL
MPI [15]: 98
IC50 [16]: 0.051 µg/mL
IC80 [16]: 0.247 µg/mL
MPI [16]: 100
IC50 [17]: 0.095 µg/mL
IC80 [17]: 0.258 µg/mL
MPI [17]: 100
IC50 [18]: 0.055 µg/mL
IC80 [18]: 0.252 µg/mL
MPI [18]: 100
IC50 [19]: 0.089 µg/mL
IC80 [19]: 0.375 µg/mL
MPI [19]: 100
IC50 [20]: 0.142 µg/mL
IC80 [20]: 0.636 µg/mL
MPI [20]: 100
IC50 [21]: 0.06 µg/mL
IC80 [21]: 0.209 µg/mL
MPI [21]: 100
IC50 [22]: 17.6 µg/mL
IC80 [22]: > 50 µg/mL
MPI [22]: 55
IC50 [23]: 0.727 µg/mL
IC80 [23]: 3.29 µg/mL
MPI [23]: 100
IC50 [24]: 0.023 µg/mL
IC80 [24]: 0.065 µg/mL
MPI [24]: 100
IC50 [25]: 0.308 µg/mL
IC80 [25]: 0.701 µg/mL
MPI [25]: 100
IC50 [26]: 0.094 µg/mL
IC80 [26]: 0.339 µg/mL
MPI [26]: 100
IC50 [27]: > 50 µg/mL
IC80 [27]: > 50 µg/mL
MPI [27]: 23

N49P9.1 (antibody)
IC50 [15]: 0.045 µg/mL
IC80 [15]: 0.352 µg/mL
MPI [15]: 98
IC50 [16]: 0.092 µg/mL
IC80 [16]: 0.286 µg/mL
MPI [16]: 100
IC50 [17]: 0.119 µg/mL
IC80 [17]: 0.389 µg/mL
MPI [17]: 100
IC50 [18]: 0.131 µg/mL
IC80 [18]: 0.67 µg/mL
MPI [18]: 100
IC50 [19]: 0.068 µg/mL
IC80 [19]: 0.478 µg/mL
MPI [19]: 100
IC50 [20]: 0.189 µg/mL
IC80 [20]: 0.947 µg/mL
MPI [20]: 100
IC50 [21]: 0.076 µg/mL
IC80 [21]: 0.223 µg/mL
MPI [21]: 100
IC50 [22]: > 50 µg/mL
IC80 [22]: > 50 µg/mL
MPI [22]: 45
IC50 [23]: 0.965 µg/mL
IC80 [23]: 3.93 µg/mL
MPI [23]: 100
IC50 [24]: 0.029 µg/mL
IC80 [24]: 0.083 µg/mL
MPI [24]: 100
IC50 [25]: 0.469 µg/mL
IC80 [25]: 1.52 µg/mL
MPI [25]: 100
IC50 [26]: 0.163 µg/mL
IC80 [26]: 0.695 µg/mL
MPI [26]: 100
IC50 [27]: > 50 µg/mL
IC80 [27]: > 50 µg/mL
MPI [27]: 23

N49P11 (antibody)
IC50 [2]: 5.2 µg/mL
IC80 [2]: 19.4 µg/mL
MPI [2]: 100
IC50 [3]: 0.221 µg/mL
IC80 [3]: 1.64 µg/mL
MPI [3]: 100
IC50 [4]: 0.248 µg/mL
IC80 [4]: 1.17 µg/mL
MPI [4]: 100
IC50 [5]: 1.35 µg/mL
IC80 [5]: 8.98 µg/mL
MPI [5]: 100
IC50 [6]: 0.43 µg/mL
IC80 [6]: 2.88 µg/mL
MPI [6]: 100
IC50 [7]: 0.889 µg/mL
IC80 [7]: 4.45 µg/mL
MPI [7]: 100
IC50 [8]: 0.027 µg/mL
IC80 [8]: 0.103 µg/mL
MPI [8]: 100
IC50 [9]: 0.72 µg/mL
IC80 [9]: 3 µg/mL
MPI [9]: 100
IC50 [10]: 0.183 µg/mL
IC80 [10]: 0.656 µg/mL
MPI [10]: 100
IC50 [11]: 3.97 µg/mL
IC80 [11]: 16.6 µg/mL
MPI [11]: 100
IC50 [12]: 0.599 µg/mL
IC80 [12]: 3.56 µg/mL
MPI [12]: 100
IC50 [13]: 0.644 µg/mL
IC80 [13]: 3.3 µg/mL
MPI [13]: 100
IC50 [14]: 0.38 µg/mL
IC80 [14]: 3.27 µg/mL
MPI [14]: 100

N49P18.1 (antibody)
IC50 [2]: 26.6 µg/mL
IC80 [2]: > 50 µg/mL
MPI [2]: 69
IC50 [3]: 1.13 µg/mL
IC80 [3]: 8.31 µg/mL
MPI [3]: 100
IC50 [4]: 9.65 µg/mL
IC80 [4]: 40.2 µg/mL
MPI [4]: 84
IC50 [5]: > 50 µg/mL
IC80 [5]: > 50 µg/mL
MPI [5]: 20
IC50 [6]: 4.08 µg/mL
IC80 [6]: 21.8 µg/mL
MPI [6]: 97
IC50 [7]: 13.1 µg/mL
IC80 [7]: 32.2 µg/mL
MPI [7]: 93
IC50 [8]: 3.04 µg/mL
IC80 [8]: 8.13 µg/mL
MPI [8]: 100
IC50 [9]: 35.2 µg/mL
IC80 [9]: > 50 µg/mL
MPI [9]: 60
IC50 [10]: 4.44 µg/mL
IC80 [10]: 14.7 µg/mL
MPI [10]: 99
IC50 [1]: > 50 µg/mL
IC80 [1]: > 50 µg/mL
MPI [1]: 0
IC50 [11]: > 50 µg/mL
IC80 [11]: > 50 µg/mL
MPI [11]: 46
IC50 [12]: 10.4 µg/mL
IC80 [12]: 48 µg/mL
MPI [12]: 82
IC50 [13]: 41.6 µg/mL
IC80 [13]: > 50 µg/mL
MPI [13]: 59
IC50 [14]: 29 µg/mL
IC80 [14]: > 50 µg/mL
MPI [14]: 68

From patent US20230002480A1
